# From publication PMC10228544 (Science immunology, 2023)
# Target: Alexa-Fluor-488-conjugated recombinant hCD19-hFc (Homo sapiens, UniProt P15391, Alexa Fluor 488 conjugate)
# Test: flow cytometry on cells
# Chain of Alexa-Fluor-488-conjugated recombinant hCD19-hFc (P15391 20-291): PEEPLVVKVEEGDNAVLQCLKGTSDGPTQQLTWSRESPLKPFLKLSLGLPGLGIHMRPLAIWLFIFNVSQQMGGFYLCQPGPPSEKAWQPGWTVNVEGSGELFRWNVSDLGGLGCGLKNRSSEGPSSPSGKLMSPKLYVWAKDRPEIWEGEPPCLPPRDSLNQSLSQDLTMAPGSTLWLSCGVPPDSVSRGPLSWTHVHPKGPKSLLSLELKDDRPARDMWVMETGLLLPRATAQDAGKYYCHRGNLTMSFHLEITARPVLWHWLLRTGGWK
row,binding result,Binder
1,binds,SJ25C1^W52F CAR on CAR T cells (receptor) VH: EVKLQQSGAELVRPGSSVKISCKASGYAFSSYFMNWVKQRPGQGLEWIGQIYPGDGDTNYNGKFKGQATLTADKSSSTAYMQLSGLTSEDSAVYFCARKTISSVVDFYFDYWGQGTTVTVSS VL: DIELTQSPKFMSTSVGDRVSVTCKASQNVGTNVAWYQQKPGQSPKPLIYSATYRNSGVPDRFTGSGSGTDFTLTITNVQSKDLADYFCQQYNRYPYTSGGGTKLEIK
2,binds,FMC63^Y261A CAR on CAR T cells (receptor) VH: EVKLQESGPGLVAPSQSLSVTCTVSGVSLPDYGVSWIRQPPRKGLEWLGVIWGSETTYYNSALKSRLTIIKDNSKSQVFLKMNSLQTDDTAIYYCAKHYYAGGSYAMDYWGQGTSVTVSS VL: DIQMTQTTSSLSASLGDRVTISCRASQDISKYLNWYQQKPDGTVKLLIYHTSRLHSGVPSRFSGSGSGTDYSLTISNLEQEDIATYFCQQGNTLPYTFGGGTKLEIT

# Continued, binder first:
row,Binder,binding result
1,"SJ25C1^WT CAR (SJ25C1 scFv, CD28, CD3-zeta) on CAR T cells (receptor) VH: EVKLQQSGAELVRPGSSVKISCKASGYAFSSYWMNWVKQRPGQGLEWIGQIYPGDGDTNYNGKFKGQATLTADKSSSTAYMQLSGLTSEDSAVYFCARKTISSVVDFYFDYWGQGTTVTVSS VL: DIELTQSPKFMSTSVGDRVSVTCKASQNVGTNVAWYQQKPGQSPKPLIYSATYRNSGVPDRFTGSGSGTDFTLTITNVQSKDLADYFCQQYNRYPYTSGGGTKLEIK",binds
2,SJ25C1^I120V CAR on CAR T cells (receptor) VH: EVKLQQSGAELVRPGSSVKISCKASGYAFSSYWMNWVKQRPGQGLEWIGQIYPGDGDTNYNGKFKGQATLTADKSSSTAYMQLSGLTSEDSAVYFCARKTVSSVVDFYFDYWGQGTTVTVSS VL: DIELTQSPKFMSTSVGDRVSVTCKASQNVGTNVAWYQQKPGQSPKPLIYSATYRNSGVPDRFTGSGSGTDFTLTITNVQSKDLADYFCQQYNRYPYTSGGGTKLEIK,binds
